In the DeepSol protein solubility set:

Assay: soluble on expression in E. coli; label from the status in PepcDB or PDB records
In the case of “MHHHHHHSSGLVPRGSGMKETAAAKFERQHMDSPDLGTDDDDKMKLQSPEFQSLFTEGLKSLTELFVKENHELRIAGGAVRDLLNGVKPQDIDFATTATPTQMKEMFQSAGIRMINNRGEKHGTITARLHEENFEITTLRIDVTTDGRHAEVEFTTDWQKDAERRDLTINSMFLGFDGTLFDYFNGYEDLKNKKVRFVGHAKQRIQEDYLRILRYFRFYGRIVDKPGDHDPETLEAIAENAKGLAGISGERIWVELKKILVGNHVNHLIHLIYDLDVAPYIGLPANASLEEFDKVSKNVDGFSPKPVTLLASLFKVQDDVTKLDLRLKIAKEEKNLGLFIVKNRKDLIKATDSSDPLKPYQDFIIDSREPDATTRVCELLKYQGEHCLLKEMQQWSIPPFPVSGHDIRKVGISSGKEIGALLQQLREQWKKSGYQMEKDELLSYIKKT”, the “soluble on expression in E. coli” value is reported as “soluble”.
With “MHHHHHHSSGVDLGTENLYFQSMGAGRRESEPRPTSARQLDGIRNIVLSNPKKRNTLSLAMLKSLQSDILHDADSNDLKVIIISAEGPVFSSGHDLKELTEEQGRDYHAEVFQTCSKVMMHIRNHPVPVIAMVNGLATAAGCQLVASCDIAVASDKSSFATPGVNVGLFCSTPGVALARAVPRKVALEMLFTGEPISAQEALLHGLLSKVVPEAELQEETMRIARKIASLSRPVVSLGKATFYKQLPQDLGTAYYLTSQAMVDNLALRDGQEGITAFLQKRKPVWSH” the “soluble on expression in E. coli” value was “soluble”.
In the case of “MHHHHHHSSGVDLGTENLYFQSMIAKSFYDLSAINLDGEKVDFNTFRGRAVLIENVASLCGTTTRDFTQLNELQCRFPRRLVVLGFPCNQFGHQENCQNEEILNSLKYVRPGGGYQPTFTLVQKCEVNGQNEHPVFAYLKDKLPYPYDDPFSLMTDPKLIIWSPVRRSDVAWNFEKFLIGPEGEPFRRYSRTFPTINIEPDIKRLLKV”, the “soluble on expression in E. coli” value is reported as “soluble”.
For “MHHHHHHSSGVDLGTENLYFQSMLAVHFDKPGGPENLYVKEVAKPSPGEGEVLLKVAASALNRADLMQRQGQYDPPPGASNILGLEASGHVAELGPGCQGHWKIGDTAMALLPGGGQAQYVTVPEGLLMPIPEGLTLTQAAAIPEAWLTAFQLLHLVGNVQAGDYVLIHAGLSGVGTAAIQLTRMAGAIPLVTAGSQKKLQMAEKLGAAAGFNYKKEDFSEATLKFTKGAGVNLILDCIGGSYWEKNVNCLALDGRWVLYGLMGGGDINGPLFSKLLFKRGSLITSLLRSRDNKYKQMLVNAFTEQILPHFSTEGPQRLLPVLDRIYPVTEIQEAHKYMEANKNIGKIVLELPQ”, the “soluble on expression in E. coli” value was “soluble”.
With “MHHHHHHSSGVDLGTENLYFQSMVPPIPKQDGGEQNGGMQCKPYGAGPTEPAHPVDERLKNLEPKMIELIMNEIMDHGPPVNWEDIAGVEFAKATIKEIVVWPMLRPDIFTGLRGPPKGILLFGPPGTGKTLIGKCIASQSGATFFSISASSLTSKWVGEGEKMVRALFAVARCQQPAVIFIDEIDSLLSQRGDGEHESSRRIKTEFLVQLDGATTSSEDRILVVGATNRPQEIDEAARRRLVKRLYIPLPEASARKQIVINLMSKEQCCLSEEEIEQIVQQSDAFSGADMTQLCREASLGPIRSLQTADIATITPDQVRPIAYIDFENAFRTVRPSVSPKDLELYENWNKTFGCGK” the “soluble on expression in E. coli” value was “soluble”.
With “MHINRTGSSQPSIELERFYSASQSLASSSVRELSPAEHANLQAITDYLKDHVFAAHKLPLSESAVDQDAVHAHNEQLDKIIDARARRLLDEGETPATIADTFAKAEKFDRMATTASITLRATPFAAASVLQYMQPAINKGDWLPMPLKPLTPFVSGALSGIMDQVGTTVMNRATGNLHYLSTPPEKLHDAMAASVKRHSPGVMRQAVDLGIAIQAYSARNAVRTVLAPALASRPAVQGAVDISVSAAGGLAANAGFGNRMHSVQARDHLRGGAFVLGIKDQEPKADLSEETDWLVAYKAIKSASYSGAALNAGKRVAGLPLDVATDGLKAVRSLVSATGLAQNGLALAGGFAGVGKLQEMATKNITDPATKAAVSQLTNMAASTGVFAAWTTAAVATDPAVKKAESFLQDTVKSAASSSTSYVADQTVKLAKAGIDASGEAIAATGASLLDTLRRRNAREPDIEEGGIAAGSPSAVPFQPGRS” the “soluble on expression in E. coli” value was “not soluble”.
In the case of “MHKAGLLGLCARAWNSVRMASSGMTRRDPLANKVALVTASTDGIGFAIARRLAQDGAHVVVSSRKQQNVDQAVATLQGEGLSVTGTVCHVGKAEDRERLVATAVKLHGGIDILVSNAAVNPFFGSIMDVTEEVWDKTLDINVKAPALMTKAVVPEMEKRGGGSVVIVSSIAAFSPSPGFSPYNVSKTALLGLTKTLAIELAPRNIRVNCLAPGLIKTSFSRMLWMDKEKEESMKETLRIRRLGEPEDCAGIVSFLCSEDASYITGETVVVGGGTPSRL”, the “soluble on expression in E. coli” value is reported as “not soluble”.
With “MHKTHSTMSGKSMKVIGVLALQGAFLEHTNHLKRCLAENDYGIKIEIKTVKTPEDLAQCDALIIPGGESTSMSLIAQRTGLYPCLYEFVHNPEKVVWGTCAGLIFLSAQLENESALVKTLGVLKVDVRRNAFGRQAQSFTQKCDFSNFIPGCDNFPATFIRAPVIERILDPIAVKSLYELPVNGKDVVVAATQNHNILVTSFHPELADSDTRFHDWFIRQFVSN” the “soluble on expression in E. coli” value was “soluble”.
With “MHKTIAVLLGIVCFLPVMAKAGGAETDATDASDVKTLFFNHDDRVPVADPTQSPWDAIGQLETASGNLCTATLISPHIALTAGHCLLTPPKGKPDKAVALRFVARKGVWRYEIHGIEGRVEPSLGRRLKADGDGWIVPPAAASWDFGLVILRYPPSGITPVPLFTGDKAALTAALKAADRKVTQSGYPEDHLNALYSHQDCVVTGWAQNAVLSHQCDTLPGDSGSPLLLHTDSGWQLIGVQSSAPAAKDRWRADNRAISVTGFRDKLKALAQD” the “soluble on expression in E. coli” value was “not soluble”.
For “MHLDRQSLEKAKHLIQSGLIDTIEVGTIKGLQEIHRFLFEGLYEFAGKIRDKNIAKGNFRFANCLYLDLILPRIESMPQNNFNQIVEKYVEMNIAHPFLEGNGRATRIWLDLLLKKELKKIVLWDRIDKAAYLSAMERSPVNDLEIKTLLKKHLSSNTNDPLTLIKGITQSYYYEGL”, the “soluble on expression in E. coli” value was “soluble”.
For “MHLNANLKYCCLWKLQSPHSCVPMLVWNCSLHPPSQYCSPLFETAVAENINRLSSHCIKKKSIQRGEKMKQTLRLLGAVTLLGITGCQFNQPPVSSIGAWEKPGADFTEIGKALLECGMPTPYDRDPENDNRSFNQMATIDACMLQAGFRYKYDVGGGMVWKS”, the “soluble on expression in E. coli” value was “not soluble”.
In the case of “MHMSEANHKNIVVVGAGIIGTSVATMLSKVSPNWHIDMFERLEGAGIESSNENNNAGTGHAALCELNYTVEQDDGSIDASKAQEINEQFELSRQFWGNLVKNGDISNPEEFIQPLPHISFVMGPTNVNFLRKRYETLKTLPMFDTIEYTEDMETMRKWMPLMMENREPGHQMAASKIDEGTDVNYGALTRKLAHYLEQKSNVSLKYNHDVVDLTQREDGKWEVVVENRETKEKVTKIADKVFIGAGGHSIPLLQKSGVKQREHLGGFPISGQFLRCTNPDIIKQHAAKVYSKEPQGKPPMTVPHLDTRYINGKQTLLFGPYANIGPKFLKFGSNLDLFESIKPYNITTMLASAVKNVPLIKYSIDQMIKTKEGCMNYLRTFIPDAKDEDWELYTAGKRVQVIKDSEQHGKGFVVFGTEVVNSDDNSMIALLGESPGASTSLSVVLEVLEKNFADDKEAWEPVVKEMVPTYGRSLINDEKLMRETRRETSKNLHLNRMAGDPLEHHHHHH”, the “soluble on expression in E. coli” value is reported as “soluble”.
In the case of “MHNQAPIQRRKSTRIYVGNVPIGDGAPIAVQSMTNTRTTDVEATVNQIKALERVGADIVRVSVPTMDAAEAFKLIKQQVNVPLVADIHFDYRIALKVAEYGVDCLRINPGNIGNEERIRMVVDCARDKNIPIRIGVNAGSLEKDLQEKYGEPTPQALLESAMRHVDHLDRLNFDQFKVSVKASDVFLAVESYRLLAKQIDQPLHLGITEAGGARSGAVKSAIGLGLLLSEGIGDTLRVSLAADPVEEIKVGFDILKSLRIRSRGINFIACPTCSRQEFDVIGTVNALEQRLEDIITPMDVSIIGCVVNGPGEALVSTLGVTGGNKKSGLYEDGVRKDRLDNNDMIDQLEARIRAKASQLDEARRIDVQQVEK”, the “soluble on expression in E. coli” value is reported as “soluble”.
In the case of “MHRRAVVLFTAALLLGLGLPRASAESRQDEPTSLITSPGYTRTTASPGPGLTLFTYQNPDDDRVVHVLRADPDAAPLTVESTAGTSGARAEKTTDMLKSTTGYAPRWPHAGLNGGFWYRQGDTLAFMGISVQEGVVQSASCSAAGRGEAALIQHGRPYIGDFTTHLAVTAPGAAPMPLDGVNRHPGWMTGCAQGSGATADRSIGGGVFADASEIIAFTSRFKAPTPVPDADARFTEDDDPGAEAVVAADGTVLSLNPNGRGGVTVPTGGRVLQGTGTGADWLRAHATPGTDLAFEERLHDERFGDDIPLDSSVDVVNGHYPLVHNAQYAYTGQNTAVDPRSAIAVDGPGRTLFVTATGKSGRNGVTLDEFARILLDLGAVDGLNMDGGGSTTLVVEQAVVNRPSDSTGERPVADSLYIGHGGYGHYADLEHHHHHH”, the “soluble on expression in E. coli” value is reported as “not soluble”.
For “MHSTPKRVLLAGATGLTGEHLLDRILSEPTLAKVIAPARKALAEHPRLDNPVGPLAELLPQLDGSIDTAFCCLGTTIKEAGSEEAFRAVDFDLPLAVGKRALEMGARHYLVVSALGADAKSSIFYNRVKGELEQALQEQGWPQLTIARPSLLFGPREEFRLAEILAAPIARILPGKYHGIEACDLARALWRLALEEGKGVRFVESDELRKLGK”, the “soluble on expression in E. coli” value was “soluble”.
For “MHTKPPIERIMYIELRTSLELFRSDLVDLEALANAAKEALEQLPYIPKEPCGKGEDDPLSGPESALRTGRLCGLVCCTATAAEGALSTCSKLIDWAYENEPEGVDDAVLVDDIDDDDDDDDDGSNGANGGGGANGSGNGSNGSGNGSPPDGGVEGAAPSLDADELAQARPSRGGIALDLAQCATTTDRPVA”, the “soluble on expression in E. coli” value was “not soluble”.
For “MHWRLTVLFFASAQLSEGCLPMVPPEEPVTPVPVCPAGWFQFQRATGLWCYIFATPGAGWTTPQAACQANYGANLNGFESAAERTQFIQDMLASNLAPYTFVHIGAMRQCAPCTVNDPFVWLNGVSNDNTFANDYDSLYDLTGDCLSMDLGNNGQYNDITCDAETAYSCGKPAA”, the “soluble on expression in E. coli” value was “not soluble”.
For “MIARGSRAPRCPQCRVIDSYCLCAWRPTVAAESGMCLLMYDTEPMKPTNTGWLIADVIKDTYAFGWSRVEIDAHLRALLDDPQWQPYIVFPGEFVAQERVVAEVAREDGKRPLFILLDATWNEARKMFRKSPYLEKFPVLSLAPEQISRYRLRRSKRDDHFCTAEVAALCLELAGDVSASGVLDAYLDVFSAHYLGAKFQRPIDPDDVAHTYLKAFILEHHHHHH”, the “soluble on expression in E. coli” value was “not soluble”.
In the case of “MIDFGNFYSLIAKNHLSHWLETLPAQIANWQREQQHGLFKQWSNAVEFLPEIKPYRLDLLHSVTAESEEPLSAGQIKRIETLMRNLMPWRKGPFSLYGVNIDTEWRSDWKWDRVMPHLSDLTGRTILDVGCGSGYHMWRMIGAGAHLAVGIDPTQLFLCQFEAVRKLLGNDQRAHLLPLGIEQLPALKAFDTVFSMGVLYHRRSPLEHLWQLKDQLVNEGELVLETLVIDGDENTVLVPGDRYAQMRNVYFIPSALALKNWLKKCGFVDIRIADVSVTTTEEQRRTEWMVTESLADFLDPHDPGKTVEGYPAPKRAVLIARKP”, the “soluble on expression in E. coli” value is reported as “not soluble”.
With “MIDLKELKKYCNHSYLTIRNDKIIVGNKGLARLSKEKMRKIEMDFEIPVVYSRVFEEISERMGRYVSKNNIISPKDKILVGLSGGKDSLALLHLLEPYRRKYGVQIYAVTVDLNINGIRPWTESNKNVKMISEHCKNLNIPHEIIAHDGNVVEMSKILSENTKGIEYSPCFSCSMVRRHVLTNYAKNNFESDSNVKIAIGHTLEDNSDTIMANIFKGNVIKALEPIKNFNKTDVDFKDFKLNLKSCCMIRPMLNVSEEKIVKALVECDIEYYKDKDECPYSRHNGDGIRKKSHEVLKSLEEDVPNIREMIISSILNSIEQYKQK” the “soluble on expression in E. coli” value was “not soluble”.
